± gives the uncertainty stated by the source.
Assay: protein stability index of a GFP-peptide fusion (yeast GPS) (PSI 1-4); higher = more stable; sorted into four equal gates, so the index is relative within each strain
How it was run: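 Tiled 17-residue yeast protein peptides were fused downstream of GFP in a plasmid that also expresses Cherry, and the pooled library was carried in yeast. Mid-log cultures in leucine-free medium were sorted into four equal gates by GFP/Cherry fluorescence ratio, and plasmids from each gate were PCR-amplified and Illumina-sequenced, with reads assigned to strains by barcodes. The protein stability index for each peptide was each gate's read frequency times its gate number, summed.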

Row | Sequence | protein stability index (doa10∆) | protein stability index (pdr5∆) | protein stability index (san1∆) | protein stability index (ubr1∆)
1 | GMPHKFYQGKTGVVYNV [RPL21A] | 2.84 ± 0.088 | 2.86 ± 0.077 | 2.53 ± 0.078 | 2.61 ± 0.067
2 | LSIKNSFIINFISNLPN [NUT1] | 1.92 ± 0.07 | 1.81 ± 0.05 | 1.87 ± 0.1 | 1.79 ± 0.04
3 | SGKARICIVGGYDDFQE [FAS2] | 2.91 ± 0.15 | 2.24 ± 0.1 | 3.36 ± 0.11 | 1.56 ± 0.17
4 | RSPEEIRRTFNIVNDFT [SKP1] | 1.36 ± 0.058 | 2.06 ± 0.094 | 1.53 ± 0.13 | 2.12 ± 0.04
5 | PQQAQMQQAQFQAQQAQ [SNF2] | 2.94 ± 0.062 | 3.04 ± 0.058 | 2.99 ± 0.055 | 3.1 ± 0.041
6 | QVPLQQTQAIAQQQQLS [YGR119C/NUP57] | 2.14 ± 0.08 | 2.41 ± 0.076 | 2.15 ± 0.077 | 2.29 ± 0.06
7 | AVKNKYNVGKQLSNEII [PRP28] | 2.08 ± 0.066 | 2.52 ± 0.074 | 2.17 ± 0.088 | 2.3 ± 0.069
8 | VLEDVYRCFAQLELRQL [RRI2] | 2.15 ± 0.25 | 2.61 ± 0.17 | 2.5 ± 0.12 | 2.67 ± 0.17
9 | QYQLLYNLKNDILTNLE [SWI1] | 1.81 ± 0.033 | 1.89 ± 0.037 | 1.74 ± 0.077 | 1.65 ± 0.031
10 | KFNKSKAKFTSLAVRSL [YCS4] | 2.09 ± 0.065 | 2.01 ± 0.056 | 1.96 ± 0.067 | 1.8 ± 0.039
11 | LSQVYPTLVRSVISGNL [CSN12] | 2.54 ± 0.072 | 2.92 ± 0.08 | 2.83 ± 0.1 | 2.48 ± 0.078
12 | RMRFPPFDDDEPPLSYE [PRP8] | 2.63 ± 0.047 | 3.06 ± 0.051 | 2.95 ± 0.035 | 2.61 ± 0.034
13 | ENGRRINELTLLVQKRF [RPS3] | 3.51 ± 0.27 | 3.42 ± 0.11 | 3.55 ± 0.13 | 3.32 ± 0.12
14 | KGEQIAIFPYQDPIFGS [ECM29] | 2.09 ± 0.048 | 2.28 ± 0.053 | 2.37 ± 0.067 | 2.23 ± 0.039
15 | NNTNTDNVSGLTRNAPL [SNF2] | 3.06 ± 0.069 | 3.35 ± 0.049 | 3.05 ± 0.039 | 3.16 ± 0.037
16 | AQDSLTVTIASSLNLED [RPB8] | 1.65 ± 0.048 | 1.92 ± 0.044 | 2.23 ± 0.079 | 1.89 ± 0.045
17 | TAKRKSRKRKPKSASNT [IRR1] | 2.97 ± 0.12 | 3.21 ± 0.13 | 2.6 ± 0.26 | 3.08 ± 0.055
18 | DYLFHLLISLNILFSLW [YLR018C/POM34] | 1.61 ± 0.041 | 1.34 ± 0.036 | 1.17 ± 0.072 | 1.21 ± 0.03
19 | PFHDPEARLFNIWGTVR [ECM29] | 1.33 ± 0.26 | 1.43 ± 0.22 |  | 
20 | GKLEVPGYVDIVKTSSG [RPS19A] | 3.38 ± 0.15 | 2.85 ± 0.092 | 3.19 ± 0.07 | 3.2 ± 0.06
21 | IVKFKQKEEGRSFTKAI [YLR335W/NUP2] | 3.13 ± 0.069 | 3.09 ± 0.066 | 3.24 ± 0.05 | 3.29 ± 0.047
22 | CKVVAEMIRGRSPEEIR [SKP1] |  | 1.95 ± 0.15 | 2.21 ± 0.29 | 1.49 ± 0.11
23 | NVLVTMPVAPTMEVKSF [YMR129W/POM152] | 1.54 ± 0.068 | 1.62 ± 0.11 | 1.95 ± 0.11 | 1.46 ± 0.068
24 | GNVTELYGTAIGARSQG [PRE5] | 2.11 ± 0.08 | 2.09 ± 0.15 | 1.94 ± 0.071 | 1.31 ± 0.044
25 | ILTGTPLQNNLPELWAL [SNF2] | 2.24 ± 0.05 | 2.4 ± 0.044 | 2.15 ± 0.055 | 2.3 ± 0.043
26 | KKVVIVKPHDEGSKSHP [RPL27A] | 2.87 ± 0.081 | 2.86 ± 0.066 | 2.82 ± 0.093 | 3.04 ± 0.057

Row | Sequence | protein stability index (doa10∆) | protein stability index (pdr5∆) | protein stability index (san1∆) | protein stability index (ubr1∆)
27 | AEQLKISLSVHTLALEF [RRP46] | 2.1 ± 0.058 | 2.29 ± 0.044 | 2.37 ± 0.063 | 2.25 ± 0.048
28 | PVYATIGVETGSEPLIQ [PRP28] | 2.84 ± 0.066 | 3.1 ± 0.076 | 2.92 ± 0.064 | 2.86 ± 0.12
29 | TGEFDFEAAVKMSDGFN [RPT4] | 2.91 ± 0.15 | 3.33 ± 0.14 | 2.57 ± 0.18 | 3.31 ± 0.16
30 | LTATPNSINKTTVPFKE [POP1] | 1.75 ± 0.061 | 2.44 ± 0.06 | 1.66 ± 0.14 | 2.48 ± 0.054
31 | NLGRAVFWEIQSRVPTS [PRP8] | 2.05 ± 0.1 | 2.22 ± 0.17 | 2.17 ± 0.092 | 2.4 ± 0.18
32 | YEAYPNTSLPPSILEDS [FAS1] | 2.15 ± 0.033 | 2.4 ± 0.03 | 2.25 ± 0.037 | 2.4 ± 0.027
33 | SSPDTMKLTDLLSLINS [SNF12] | 2.69 ± 0.042 | 2.73 ± 0.039 | 2.81 ± 0.047 | 2.67 ± 0.036
34 | TKVNNQLIKVAVHNGDR [RPL9B] | 1.92 ± 0.074 | 1.52 ± 0.06 | 1.78 ± 0.086 | 2.4 ± 0.029
35 | RNNFLAENSHTQPKATS [PUP1] | 3.14 ± 0.069 | 3.1 ± 0.059 | 3.06 ± 0.044 | 3.13 ± 0.04
36 | GAVIQLLKSTGLHPFEV [RPB4] | 3.32 ± 0.13 | 3.19 ± 0.14 | 3.07 ± 0.2 | 2.99 ± 0.084
37 | KELDQELIIDPLFKKAL [BRN1] | 3.23 ± 0.071 | 3.07 ± 0.073 | 3.13 ± 0.11 | 3.07 ± 0.052
38 | VFNDAHVLNKVTLASIL [RPN1] | 2.21 ± 0.091 | 2.09 ± 0.065 | 2.45 ± 0.096 | 2.03 ± 0.05
39 | KGSRFISTLQVKLYGRE [RPB2] | 2.06 ± 0.065 | 2.3 ± 0.057 | 2.58 ± 0.089 | 2.37 ± 0.056
40 | ELAINLIRFDESITKAM [SMC2] | 2.59 ± 0.062 | 2.78 ± 0.08 | 2.62 ± 0.09 | 2.65 ± 0.071
41 | TLRKELEQIQVQLKDAN [YIL149C/MLP2] | 2.51 ± 0.1 | 2.96 ± 0.093 | 2.67 ± 0.096 | 2.24 ± 0.051
42 | DSVTTETGKLLSGLAQR [BRN1] | 2.5 ± 0.12 | 2.87 ± 0.099 | 2.66 ± 0.15 | 2.66 ± 0.072
43 | FGPIKVELPTKETVEIG [FAS1] | 3.01 ± 0.084 | 3.28 ± 0.07 | 3.23 ± 0.067 | 3.02 ± 0.066
44 | KYLLTQRVFKPVDITMM [PRP8] | 2.98 ± 0.081 | 2.99 ± 0.11 | 3.02 ± 0.079 | 2.31 ± 0.1
45 | TELVDGRENFVYANNPE [SIR3] | 3.15 ± 0.1 | 3.33 ± 0.11 | 3.05 ± 0.13 | 2.95 ± 0.083
46 | RIGKHRKHPGGRGMAGG [RPL28] | 2.92 ± 0.12 | 2.63 ± 0.24 | 2.97 ± 0.1 | 3.22 ± 0.16
47 | DTAVKTAETGYIQRRLV [RPO21] | 1.75 ± 0.053 | 2.5 ± 0.069 | 1.98 ± 0.12 | 2.13 ± 0.058
48 | DFYVVMNRPGARVTRRK [RPL11A] | 3.22 ± 0.17 | 2.86 ± 0.15 | 3.28 ± 0.061 | 3.32 ± 0.11
49 | ERGQKVKNVKNSDLEFN [ARP9] | 3 ± 0.18 | 1.96 ± 0.09 | 2.17 ± 0.18 | 1.25 ± 0.072
50 | RADVEDESNDIDMIADE [RPC37] | 2.95 ± 0.073 | 2.72 ± 0.057 | 2.8 ± 0.08 | 3.27 ± 0.066
51 | KRHSYAQSSHIRAIRKV [RPS1A] | 2.399 ± 0.019 | 2.336 ± 0.017 | 2.423 ± 0.022 | 2.446 ± 0.015
